Experimental data from publication PMC12112095, “Insights into Chemoreceptor MCP2201-Sensing D-Malate” (International Journal of Molecular Sciences, 2025).
One block for each molecule: values may come before it.

Legend:
[1] = target: T1, MCP2201 (Comamonas thiooxydans, UniProt A0ABF7PFR0); experiment: analytical ultracentrifugation (ligand-induced LBD dimerization); format: binding
T1 construct: gene CtCNB1_2201; LBD (residues 58–203), N-terminal His6-tag
T1 sequence (A0ABF7PFR0 58-203): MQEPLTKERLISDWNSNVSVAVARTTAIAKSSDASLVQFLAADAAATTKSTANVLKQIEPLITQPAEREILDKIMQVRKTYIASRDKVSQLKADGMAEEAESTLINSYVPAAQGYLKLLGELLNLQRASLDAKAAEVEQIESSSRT

[2] = target: T2, MCP2201 (Comamonas thiooxydans, UniProt A0ABF7PFR0, T105A); experiment: ITC; format: binding
T2 construct: gene CtCNB1_2201; T105A LBD

[3] = target: T1, MCP2201; experiment: ITC; crystal structure at […] Å; format: binding
[4] = target: MCP2201 LBD mutant T105A (T105A LBD) (Comamonas testosteroni CNB-1); experiment: AUC; ligand-free; Beckman XL-I, 60,000 x g, 7 h, 4 °C
[5] = target: MCP2201 LBD mutant T105A (T105A LBD) (Comamonas testosteroni CNB-1); experiment: AUC; in the presence of citrate; Beckman XL-I, 60,000 x g, 7 h, 4 °C
[6] = target: MCP2201 LBD mutant T105A (T105A LBD) (Comamonas testosteroni CNB-1); experiment: AUC; in the presence of D-malate; Beckman XL-I, 60,000 x g, 7 h, 4 °C
[7] = target: ligand-binding domain of MCP2201 (MCP2201 LBD) (Comamonas testosteroni CNB-1); experiment: AUC; ligand-free; Beckman XL-I, 60,000 x g, 7 h, 4 °C
[8] = target: ligand-binding domain of MCP2201 (MCP2201 LBD) (Comamonas testosteroni CNB-1); experiment: AUC; in the presence of D-malate; Beckman XL-I, 60,000 x g, 7 h, 4 °C
[9] = target: ligand-binding domain of MCP2201 (MCP2201 LBD) (Comamonas testosteroni CNB-1); experiment: AUC; in the presence of L-malate; Beckman XL-I, 60,000 x g, 7 h, 4 °C
[10] = target: ligand-binding domain of MCP2201 (MCP2201 LBD) (Comamonas testosteroni CNB-1); experiment: ITC; dilution: 1.1 mM protein in 10 mM D-malate, 20 mM Tris pH 7.5, 150 mM NaCl injected into the same buffer, 25 °C; oligomer dissociation model; dimer to monomers

Molecule: O=C(O)CC(O)C(=O)O (stereo in doubt) [L-malate]
analytical ultracentrifugation (ligand-induced LBD dimerization) [1]: the D-malate-bound MCP2201 LBD predominately occurred as a dimer, the same as the L-malate-bound LBD (Figure 3B)

Molecule: O=C(O)C[C@@H](O)C(=O)O [D-malate]
Kd [2]: 5.5 ± 0.01 µM
Kd [3]: 40 ± 3.3 µM

Molecule: O=C(O)CC(O)(CC(=O)O)C(=O)O [citrate]
Kd [2]: 670 ± 270 µM

stoichiometry N [4]: 2
stoichiometry N [5]: 2
stoichiometry N [6]: 2
Molecule: MCP2201 LBD mutant T105A (T105A LBD) (domain or fragment)

stoichiometry N [7]: 2
stoichiometry N [8]: 2
stoichiometry N [9]: 2
Kd [10]: 0.027 µM
Molecule: ligand-binding domain of MCP2201 (MCP2201 LBD) (domain or fragment)
